Source: article PMC11840927, “Frataxin Traps Low Abundance Quaternary Structure to Stimulate Human Fe–S Cluster Biosynthesis” (Biochemistry, 2025)

B1: ISCU2 (Δ1–35) (natural protein, human, UniProt Q9H1K1-1 36-167, looked up)
chain: HKKVVDHYENPRNVGSLDKTSKNVGTGLVGAPACGDVMKLQIQVDEKGKIVDARFKTFGCGSAIASSSLATEWVKGKTVEEALTIKNTDIAKELCLPPVKLHCSMLAEDAIKAALADYKLKQEPKKGEAEKK
notes: ISCU2, human Fe–S cluster scaffold protein, Δ1–35 (residues 36 to the C-terminus); Two constructs were made, ISCU2-TEV-GST and ISCU2-TEV-GST-His6; Residues of the TEV site may remain at the C-terminus after cleavage (surmised); also called scaffold protein; source: E. coli BL21(DE3), purified (GST column, TEV digestion, Ni-NTA, cation exchange, Sephacryl S100); not shown: GST, C-terminal, cleaved
B2: FXN (Δ1–81) (natural protein, human, UniProt Q16595 82-210, looked up)
chain: GTLGHPGSLDETTYERLAEETLDSLAEFFEDLADKPYTFEDYDVSFGSGVLTVKLGGDLGTYVINKQTPNKQIWLSSPSSGPKRYDWTGKNWVYSHDGVSLHELLAAELTKALKTKLDLSSLAYSGKDA
notes: frataxin (FXN), human, Δ1–81 (residues 82 to the C-terminus); also called frataxin

Target: T1, NFS1(Δ1–55)-ISD11(S11A)-ACPec complex with N-terminal His6 tag on NFS1 (human | Escherichia coli, UniProt Q9Y697 56-457; Q9HD34 1-91; P0A6A8 1-78, S11A, covalently attached PLP | acyl-4′PPT (assumed mass 523 Da))
T1 construct: NFS1, human cysteine desulfurase, Δ1–55 (residues 56 to the C-terminus); ISD11 (LYRM superfamily), human, S11A; Escherichia coli acyl-carrier protein (ACPec) associated with NFS1-ISD11; Used uniformly 14N or 15N labelled in the exchange experiments; Calculated masses excluded the N-terminal methionine if present; also called SDAec; His-tagged SDAec; not shown: His6, N-terminal, kept; copies: 2 + …
Experiment: native MS; complexes formed before the exchange reaction: SDAec with ISCU2 (1:3) or ISCU2 and FXN (1:3:3), IscS with IscU (1:3), 30 min, room temperature, EMR Orbitrap
Settings: both partners purified

Binder	binding result
B1	binds
B2	binds
